Key:
bevacizumab [1] = test: method not stated; affinity listed for the purchased ADA
bevacizumab [2] = test: Bevacizumab PK ELISA (anti-idiotype capture) of bevacizumab 0.5 ug/mL pre-bound with ADA; bevacizumab:ADA 1:100
bevacizumab [3] = test: Bevacizumab PK ELISA (anti-idiotype capture) of bevacizumab 0.5 ug/mL pre-bound with ADA; bevacizumab:ADA 5:1
bevacizumab [4] = test: Bevacizumab PK ELISA (anti-idiotype capture) of bevacizumab 50 ug/mL pre-bound with ADA; bevacizumab:ADA 5:1
bevacizumab [5] = test: Bevacizumab PK ELISA (anti-idiotype capture) of bevacizumab 0.5 ug/mL pre-bound with ADA; bevacizumab:ADA 1:1
bevacizumab [6] = test: Bevacizumab PK ELISA (anti-idiotype capture) of bevacizumab 50 ug/mL pre-bound with ADA; bevacizumab:ADA 1:1
bevacizumab [7] = test: Bevacizumab PK ELISA (anti-idiotype capture) of bevacizumab 0.5 ug/mL pre-bound with ADA; bevacizumab:ADA 1:5
bevacizumab [8] = test: Bevacizumab PK ELISA (anti-idiotype capture) of bevacizumab 0.5 ug/mL pre-bound with ADA; bevacizumab:ADA 1:50
bevacizumab [9] = test: Bevacizumab PK ELISA (anti-idiotype capture) of bevacizumab 0.5 ug/mL pre-bound with ADA; bevacizumab:ADA 1:10
bevacizumab [10] = test: cell-based or functional assay
bevacizumab [11] = test: Bevacizumab PK ELISA (anti-idiotype capture) of bevacizumab 50 ug/mL pre-bound with ADA; bevacizumab:ADA 10:1
bevacizumab [12] = test: Bevacizumab PK ELISA (anti-idiotype capture) of bevacizumab 50 ug/mL pre-bound with ADA; bevacizumab:ADA 100:1
bevacizumab [13] = test: Bevacizumab PK ELISA (anti-idiotype capture) of bevacizumab 0.5 ug/mL pre-bound with ADA; bevacizumab:ADA 10:1
bevacizumab [14] = test: Bevacizumab PK ELISA (anti-idiotype capture) of bevacizumab 0.5 ug/mL pre-bound with ADA; bevacizumab:ADA 1:2

Substance: HCA185 (antibody)
- Kd (bevacizumab [1]): 0.4 nM
- Accuracy (%) ELISA (bevacizumab [2]): 35.2%
- Accuracy (%) ELISA (bevacizumab [3]): 86.6%
- Accuracy (%) ELISA (bevacizumab [4]): 76.2%
- Accuracy (%) ELISA (bevacizumab [5]): 73.5%
- Accuracy (%) ELISA (bevacizumab [6]): 76.8%
- Accuracy (%) ELISA (bevacizumab [7]): 39.6%
- Accuracy (%) ELISA (bevacizumab [8]): 37.2%
- Accuracy (%) ELISA (bevacizumab [9]): 38.9%
- Accuracy (%) nSMOL; bevacizumab 0.5 ug/mL; bevacizumab:ADA 1:1 (bevacizumab [10]): 95.5%
- Accuracy (%) nSMOL; bevacizumab 0.5 ug/mL; bevacizumab:ADA 1:2 (bevacizumab [10]): 82.1%
- Accuracy (%) nSMOL; bevacizumab 0.5 ug/mL; bevacizumab:ADA 1:5 (bevacizumab [10]): 54.8%
- Accuracy (%) nSMOL; bevacizumab 0.5 ug/mL; bevacizumab:ADA 1:10 (bevacizumab [10]): 22.8%
- Accuracy (%) nSMOL; bevacizumab 0.5 ug/mL; bevacizumab:ADA 1:50 (bevacizumab [10]): 22.9%
- Accuracy (%) nSMOL; bevacizumab 0.5 ug/mL; bevacizumab:ADA 1:100 (bevacizumab [10]): 23.1%
- Accuracy (%) nSMOL; bevacizumab 0.5 ug/mL; bevacizumab:ADA 5:1 (bevacizumab [10]): 105%
- Accuracy (%) nSMOL; bevacizumab 0.5 ug/mL; bevacizumab:ADA 10:1 (bevacizumab [10]): 107%
- Accuracy (%) nSMOL; bevacizumab 50 ug/mL; bevacizumab:ADA 1:1 (bevacizumab [10]): 75.7%
- Accuracy (%) nSMOL; bevacizumab 50 ug/mL; bevacizumab:ADA 5:1 (bevacizumab [10]): 90.3%
- Accuracy (%) nSMOL; bevacizumab 50 ug/mL; bevacizumab:ADA 10:1 (bevacizumab [10]): 95.8%
- Accuracy (%) nSMOL; bevacizumab 50 ug/mL; bevacizumab:ADA 100:1 (bevacizumab [10]): 100%
- Accuracy (%) nSMOL; bevacizumab first immobilized on Protein A; bevacizumab:ADA 1:1 (bevacizumab [10]): 58.9%
- Accuracy (%) nSMOL; bevacizumab first immobilized on Protein A; bevacizumab:ADA 5:1 (bevacizumab [10]): 90%
- Accuracy (%) nSMOL; bevacizumab first immobilized on Protein A; bevacizumab:ADA 10:1 (bevacizumab [10]): 106%
- Accuracy (%) nSMOL; bevacizumab first immobilized on Protein A; bevacizumab:ADA 100:1 (bevacizumab [10]): 105%
- inhibitory effect on quantification values (nSMOL), ratio 1:1 (bevacizumab [10]): 50%
- Accuracy (%) ELISA (bevacizumab [11]): 84.1%
- Accuracy (%) ELISA (bevacizumab [12]): 95.6%
- Accuracy (%) ELISA (bevacizumab [13]): 104%
- Accuracy (%) ELISA (bevacizumab [14]): 55.8%

Substance: MAB11128 (clone2C8) (antibody)
- Accuracy (%) ELISA (bevacizumab [2]): 0%
- Accuracy (%) ELISA (bevacizumab [3]): 14.2%
- Accuracy (%) ELISA (bevacizumab [4]): 65.5%
- Accuracy (%) ELISA (bevacizumab [5]): 6.9%
- Accuracy (%) ELISA (bevacizumab [6]): 5.72%
- Accuracy (%) ELISA (bevacizumab [7]): 2.3%
- Accuracy (%) ELISA (bevacizumab [8]): 0.1%
- Accuracy (%) ELISA (bevacizumab [9]): 2.4%
- Accuracy (%) nSMOL; bevacizumab 0.5 ug/mL; bevacizumab:ADA 1:1 (bevacizumab [10]): 98.2%
- Accuracy (%) nSMOL; bevacizumab 0.5 ug/mL; bevacizumab:ADA 1:2 (bevacizumab [10]): 110%
- Accuracy (%) nSMOL; bevacizumab 0.5 ug/mL; bevacizumab:ADA 1:5 (bevacizumab [10]): 111%
- Accuracy (%) nSMOL; bevacizumab 0.5 ug/mL; bevacizumab:ADA 1:10 (bevacizumab [10]): 110%
- Accuracy (%) nSMOL; bevacizumab 0.5 ug/mL; bevacizumab:ADA 1:50 (bevacizumab [10]): 110%
- Accuracy (%) nSMOL; bevacizumab 0.5 ug/mL; bevacizumab:ADA 1:100 (bevacizumab [10]): 104%
- Accuracy (%) nSMOL; bevacizumab 0.5 ug/mL; bevacizumab:ADA 5:1 (bevacizumab [10]): 98%
- Accuracy (%) nSMOL; bevacizumab 0.5 ug/mL; bevacizumab:ADA 10:1 (bevacizumab [10]): 91.3%
- Accuracy (%) nSMOL; bevacizumab 50 ug/mL; bevacizumab:ADA 1:1 (bevacizumab [10]): 102%
- Accuracy (%) nSMOL; bevacizumab 50 ug/mL; bevacizumab:ADA 5:1 (bevacizumab [10]): 97.3%
- Accuracy (%) nSMOL; bevacizumab 50 ug/mL; bevacizumab:ADA 10:1 (bevacizumab [10]): 100%
- Accuracy (%) nSMOL; bevacizumab 50 ug/mL; bevacizumab:ADA 100:1 (bevacizumab [10]): 101%
- Accuracy (%) nSMOL; bevacizumab first immobilized on Protein A; bevacizumab:ADA 1:1 (bevacizumab [10]): 106%
- Accuracy (%) nSMOL; bevacizumab first immobilized on Protein A; bevacizumab:ADA 5:1 (bevacizumab [10]): 106%
- Accuracy (%) nSMOL; bevacizumab first immobilized on Protein A; bevacizumab:ADA 10:1 (bevacizumab [10]): 104%
- Accuracy (%) nSMOL; bevacizumab first immobilized on Protein A; bevacizumab:ADA 100:1 (bevacizumab [10]): 109%
- Accuracy (%) ELISA (bevacizumab [11]): 68.5%
- Accuracy (%) ELISA (bevacizumab [12]): 102%
- Accuracy (%) ELISA (bevacizumab [13]): 44.2%
- Accuracy (%) ELISA (bevacizumab [14]): 3.2%

Reference: US20200173960A1
